Measurements: patent publication US20090136977A1 (published 2009)

Biological target: affinity purified BACE1 (BACE1-myc, wild type) (UniProt P56817 22-501, limits assumed)
Test: cell-based or functional assay

affinity purified BACE1 (BACE1-myc, wild type), sequence (P56817 22-501 limits assumed, form in doubt): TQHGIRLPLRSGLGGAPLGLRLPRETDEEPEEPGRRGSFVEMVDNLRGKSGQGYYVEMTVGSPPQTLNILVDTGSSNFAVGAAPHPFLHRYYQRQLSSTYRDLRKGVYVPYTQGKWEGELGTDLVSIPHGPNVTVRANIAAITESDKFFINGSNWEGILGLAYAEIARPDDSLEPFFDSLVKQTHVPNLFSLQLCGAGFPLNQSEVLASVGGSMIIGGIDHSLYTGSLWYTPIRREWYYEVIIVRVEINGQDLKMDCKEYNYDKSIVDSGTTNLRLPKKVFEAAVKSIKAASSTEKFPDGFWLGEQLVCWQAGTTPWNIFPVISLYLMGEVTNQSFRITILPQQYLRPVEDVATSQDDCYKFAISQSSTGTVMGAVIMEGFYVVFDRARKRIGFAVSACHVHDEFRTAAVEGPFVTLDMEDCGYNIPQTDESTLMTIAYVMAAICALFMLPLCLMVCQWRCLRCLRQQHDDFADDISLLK

| acetyltransferase activity recovered from cell extracts (acceptor: affinity purified BACE1) [fold] | acetylCoA:lysine acetyltransferase activity recovered from total cell extracts (acceptor: affinity purified BACE1) [fold] | Binder |
| --- | --- | --- |
| ~2 | – | ATase1 (acetyltransferase 1) with a myc tag at the C-terminus (enzyme, not shown: small tags and cut ends) MAPYHIRKYQESDRKSVVGLLSRGMAEHAPATFRRLLKLPRTLILLLGGALALLLVSGSWILALVFSLSLLPALWFLAKKPWTRYVDIALRTDMSDITKSYLSECGSCFWVGESEEKVVGTVGALPVDDPTLREKRLQLFHLSVDNEHRGQGIAKALVRTVLQFARDQGYSEVVLDTSNIQLSAMGLYQSLGFKKTGQSFFHVWARLVDLHTVHFIYHLPSAQAGRL |
| – | ~3 | ATase2 (acetyltransferase 2) with a myc tag at the C-terminus (enzyme, not shown: small tags and cut ends) MAPCHIRKYQESDRQWVVGLLSRGMAEHAPATFRQLLKLPRTLILLLGGPLALLLVSGSWLLALVFSISLFPALWFLAKKPWTEYVDMTLCTDMSDITKSYLSERGSCFWVAESEEKVVGMVGALPVDDPTLREKRLQLFHLFVDSEHRRQGIAKALVRTVLQFARDQGYSEVILDTGTIQLSAMALYQSMGFKKTGQSFFCVWARLVALHTVHFIYHLPSSKVGSL |
